{"source": "patent US20160279079A1", "about": "“COMPOSITIONS AND METHODS FOR TREATING BONE DISEASES” (INDIANA UNIVERSITY RESEARCH AND TECHNOLOGY CORPORATION, priority 2013, published 2016)", "molecules": {"B1": {"name": "RANKL: cytokine belonging to the tumor necrosis factor family; stimulus for osteoclast differentiation (PeproTech) (protein, UniProt O14788 140-317, looked up)", "Tumor necrosis factor ligand …": "IRAEKAMVDGSWLDLAKRSKLEAQPFAHLTINATDIPSGSHKVSLSSWYHDRGWAKISNMTFSNGKLIVNQDGFYYLYANICFRHHETSGDLATEYLQLMVYVTKTSIKIPSSHTLMKGGSTKYWSGNSEFHFYSINVGGFFKLRSGEEISIEVSNPSLLDPDQDATYFGAFKVRDID"}}, "key": {"[1]": {"system": "RAW264.7 mouse pre-osteoclast (monocyte/macrophage) cells", "assay": "Cell mortality and live cell numbers (trypan blue, hemacytometer)", "format": "cell-based", "conditions": "incubation with RANKL (20 ng/ml), 24 h", "description": "METHOD EXAMPLE. Cell culture. MC3T3 E1 mouse osteoblast-like cells (clone 14—MC3T3 E1-14; and no clonal cells in supplementary figures), and RAW264.7 mouse pre-osteoclast (monocyte/macrophage) cells were cultured in αMEM containing 10% fetal bovine serum and antibiotics (50 units/ml penicillin, and 50 μg/ml streptomycin; Life Technologies, Grand Island, N.Y., USA). Cells were maintained at 37° C. and 5% CO2 in a humidified incubator. Cell mortality and live cell numbers were determined 24 h after the treatment with 20 ng/ml RANKL (PeproTech, Rocky Hills, N.C., USA) in response to 0.1-20 μM salubrinal or 1-20 μM guanabenz acetate (Tocris Bioscience, Ellisville, Mo., USA). Cells were stained with trypan blue and the numbers of live and dead cells were counted using a hemacytometer.\nMETHOD EXAMPLE. Inhibition of osteoclastogenesis of RAW264.7 cells by salubrinal. The primary aim of this study is to evaluate the effects of salubrinal on osteoclastogenesis. In response to 0.1-20 μM salubrinal for 24 h, cell mortality and live cell numbers of RAW264.7 pre-osteoclasts was examined. […] The number of live cells was increased by ˜50% by incubation with RANKL, and administration of 10-20 μM salubrinal reduced the numbers approximately by 10% (FIG. 3B).\nMETHOD EXAMPLE. Inhibitory effects of guanabenz on osteoclastogenesis of RAW264.7 cells. To further examine a potential involvement of p-eIF2α in regulation of osteoclastogenesis, we employed guanabenz that also acts as an inhibitor of de-phosphorylation of eIF2α was evaluated. […] Compared to the number of TRAP-positive multi-nucleated cells of 377 39 (RANKL only), guanabenz reduced the number of differentiated osteoclasts to 364±38 (1 μM), 288±51 (5 μM), 189±25 (10 μM), and 73±16 (20 μM)."}, "[2]": {"system": "NFATc1", "assay": "Quantitative real-time PCR, NFATc1 mRNA in RAW264.7 cells", "format": "cell-based, mouse", "conditions": "day 2", "description": "(§1) METHOD EXAMPLE. Quantitative real-time PCR. Total RNA was extracted using an RNeasy Plus mini kit (Qiagen, Germantown, Md., USA). Reverse transcription was conducted with high capacity cDNA reverse transcription kits (Applied Biosystems, Carlsbad, Calif., USA), and quantitative real-time PCR was performed using ABI 7500 with Power SYBR green PCR master mix kits (Applied Biosystems). We evaluated mRNA levels of ATF4, Osteocalcin (OCN), NFATcl, c-Fos, tartrate-resistant acid phosphatase (TRAP), and osteoclast-associated receptor (OSCAR) with the PCR primers listed in Table 1. GAPDH was used for internal control. The relative mRNA abundance for the selected genes with respect to the level of GAPDH mRNA was expressed as a ratio of Streated/Scontrol, where Streated=mRNA level for the cells treated with chemical agents, and Scontrol=mRNA level for control cells.\n(§2) METHOD EXAMPLE. Partial suppression of mRNA levels of NFATcl, c-Fos, TRAP, and OSCAR by salubrinal. […] On day 2, for instance, the RANKL-driven increase was 9.4±0.5 fold (NFATcl), 1.9±0.1 fold (c-fos), 165±4.2 fold (TRAP), and 467±22 fold (OSCAR). The reduction by 20 μM salubrinal was 46% (NFATcl), 32% (c-fos), 35% (TRAP), and 21% (OSCAR) (FIG. 5A).\n(§3) METHOD EXAMPLE. Reduction of RANKL-induced NFATcl, c-Fos, TRAP, and OSCAR by guanabenz. […] The normalized level of “1” was defined as the level for the cells that were not treated with RANKL without administration of guanabenz."}, "[3]": {"system": "c-Fos", "assay": "Quantitative real-time PCR, c-Fos mRNA in RAW264.7 cells", "format": "cell-based, mouse", "conditions": "day 2", "description": "as §1, §2, §3"}, "[4]": {"system": "tartrate-resistant acid phosphatase (TRAP)", "assay": "Quantitative real-time PCR, TRAP mRNA in RAW264.7 cells", "format": "cell-based, mouse", "conditions": "day 2", "description": "as §1, §2, §3"}, "[5]": {"system": "osteoclast-associated receptor (OSCAR)", "assay": "Quantitative real-time PCR, OSCAR mRNA in RAW264.7 cells", "format": "cell-based, mouse", "conditions": "day 2", "description": "as §1, §2, §3"}, "[6]": {"system": "NFATc1", "assay": "Western immunoblotting, NFATc1 expression in RAW264.7 cells", "format": "cell-based, mouse", "conditions": "24 h", "description": "METHOD EXAMPLE. Downregulation of NFATcl in RAW264.7 cells by salubrinal. NFATcl is a transcription factor critical for activating osteoclastogenesis. […] The RANKL-induced expression of NFATcl was reduced by administration of 5-20 μM salubrinal on both days, and the effect of salubrinal was dose dependent (FIG. 4).\nas §3\nMETHOD EXAMPLE. Western Immunoblotting. Cells were lysed in a radioimmunoprecipitation assay (RIPA) buffer containing protease inhibitors (Santa Cruz Biotechnology, Santa Cruz, Calif., USA) and phosphatase inhibitors (Calbiochem, Billerica, Mass., USA). Isolated proteins were fractionated using 10-15% SDS gels and electro-transferred to Immobilon-P membranes (Millipore, Billerica, Mass., USA). The membrane was incubated for 1 h with primary antibodies followed by 45 min incubation with goat anti-rabbit or anti-mouse IgG conjugated with horseradish peroxidase (Cell Signaling, Danvers, Mass., USA). We used antibodies against ATF4, NFATcl (Santa Cruz), p-eIF2α (Thermo Scientific, Waltham, Mass., USA), eIF2α, caspase 3, cleaved caspase 3, p38 and p-p38 mitogen activated protein kinase (MAPK), extracellular signal-regulated kinase (ERK) and p-ERK, nuclear factor kappa B (NFκB) p65 and p-NFκB p65 (Cell Signaling), and β-actin (Sigma). Protein levels were assayed using a SuperSignal west femto maximum sensitivity substrate (Thermo Scientific), and signal intensities were quantified with a luminescent image analyzer (LAS-3000, Fuji Film, Tokyo, Japan).\nMETHOD EXAMPLE. Temporal profile of p-eIF2α and NFATcl. […] Note that the normalized level of “1” in FIG. 6C was defined as the level for the cells that were not treated with RANKL without administration of guanabenz."}}}
{"molecule": "B1", "values": [{"measurement": "increase of the number of live cells", "setting": "[1]", "value": "~50", "unit": "%"}, {"measurement": "RANKL-driven increase of NFATc1 mRNA level", "setting": "[2]", "value": "9.4±0.5", "unit": "fold"}, {"measurement": "RANKL-driven increase of c-fos mRNA level", "setting": "[3]", "value": "1.9±0.1", "unit": "fold"}, {"measurement": "RANKL-driven increase of TRAP mRNA level", "setting": "[4]", "value": "165±4.2", "unit": "fold"}, {"measurement": "RANKL-driven increase of OSCAR mRNA level", "setting": "[5]", "value": "467±22", "unit": "fold"}, {"measurement": "elevation of NFATc1 by addition of RANKL", "setting": "[6]", "value": "13.4±3.2", "unit": "fold"}]}
